From patent publication US5831007 come the findings set out here.

“And” between values parts separate entries of the source, which are not always exact repeats. Equal entries are not always repeated.

For assay [1], the target named is Soluble complex of 125I-IL-12 crosslinked to human IL-12R (human) (UniProt P29460). The assay can be described thus: immunoprecipitation of the solubilized 125I-IL-12/IL-12R complex by the immobilized antibody; control.
Assay [2] addresses Natural human IL-12 receptor on IL-12R positive human cells (PHA-activated PBMC, K6, Kit-225, YT cells) (human). Kind of assay: steady state 125I-IL-12 binding to PHA-PBMC (5-7 days), Scatchard, third of 3 sites.
For assay [3] the target is unchanged. Kind of assay: equilibrium binding of 125I-IL-12 to PHA-activated PBMCs, Kit-225 and K6 cells, Scatchard, second of 3 sites.
The target is the same in assay [4]. Kind of assay: steady state 125I-IL-12 binding to Kit-225 cells, Scatchard, first of 3 sites.
The target is the same in assay [5]. The assay can be described thus: steady state 125I-IL-12 binding to YT cells, Scatchard, second of 2 sites.
For assay [6] the target is unchanged. Kind of assay: steady state 125I-IL-12 binding to YT cells, Scatchard, first of 2 sites.
Assay [7] has the same target. The assay can be described thus: steady state 125I-IL-12 binding to K6 cells, Scatchard, third of 3 sites.
Assay [8] has the same target. The assay can be described thus: steady state 125I-IL-12 binding to K6 cells, Scatchard, second of 3 sites.
Assay [9] has the same target. The assay can be described thus: equilibrium binding of 125I-IL-12 to PHA-activated PBMCs, Kit-225 and K6 cells, Scatchard, first of 3 sites.
Assay [10] deals with Detergent solubilized IL-12R from extracts of PHA-activated PBMC, Kit-225 or K6 cells (human). The assay can be described thus: steady state binding of 125I-IL-12 to proteins immunoprecipitated by immobilized 2-4E6 from solubilized cell extracts, Scatchard (FIG. 14, K6 cells).
Assay [11] has as its target Natural human IL-12 receptor on IL-12R positive human cells (PHA-activated PBMC, K6, Kit-225, YT cells) (human). Kind of assay: steady state 125I-IL-12 binding to PHA-PBMC (5-7 days), Scatchard, first of 3 sites.
Assay [12] shares this target. Kind of assay: steady state 125I-IL-12 binding to Kit-225 cells, Scatchard, third of 3 sites.
Assay [13] has the same target. Kind of assay: steady state 125I-IL-12 binding to PHA-PBMC (5-7 days), Scatchard, second of 3 sites.
Assay [14] has the same target. Kind of assay: steady state 125I-IL-12 binding to Kit-225 cells, Scatchard, second of 3 sites.
Assay [15] shares this target. The assay can be described thus: equilibrium binding of 125I-IL-12 to PHA-activated PBMCs, Kit-225 and K6 cells, Scatchard, third of 3 sites.
Assay [16] shares this target.
For assay [17] the target is unchanged. The assay can be described thus: steady state 125I-IL-12 binding to K6 cells, Scatchard, first of 3 sites.

Chain of Recombinant human IL-12 (Interleukin-12) (P29460 23-328): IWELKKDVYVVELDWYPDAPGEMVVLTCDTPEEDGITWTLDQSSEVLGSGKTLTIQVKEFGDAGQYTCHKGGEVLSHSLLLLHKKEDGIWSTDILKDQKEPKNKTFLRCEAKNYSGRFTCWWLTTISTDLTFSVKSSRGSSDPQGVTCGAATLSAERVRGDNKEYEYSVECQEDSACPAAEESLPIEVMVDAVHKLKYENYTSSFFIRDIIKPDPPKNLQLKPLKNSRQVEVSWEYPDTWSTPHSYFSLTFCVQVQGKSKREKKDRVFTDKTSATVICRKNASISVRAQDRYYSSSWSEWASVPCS
Chain of Recombinant human IL-12 (Interleukin-12) (chain): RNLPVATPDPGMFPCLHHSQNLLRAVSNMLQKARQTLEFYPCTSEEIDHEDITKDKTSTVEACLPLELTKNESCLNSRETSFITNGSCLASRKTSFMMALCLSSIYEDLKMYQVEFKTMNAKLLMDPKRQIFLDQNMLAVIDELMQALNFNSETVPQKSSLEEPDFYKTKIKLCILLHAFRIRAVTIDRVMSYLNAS

Control mAb (Table 1) (antibody) had an I.P. assay (cpm bound) in assay [1] of 402 cpm.

“Recombinant human IL-12 (Interleukin-12) (from UniProt P29460) (ligand)”: the dissociation constant Kd in assay [2] is 1.8 nM; in assay [3], 0.05 nM and 0.2 nM; in [4], 0.023 nM; in assay [5] it was 0.109 nM; in [6], 0.006 nM; in assay [7] it was 2.4 nM. In addition, the dissociation constant Kd in assay [8] was 0.057 nM; in assay [9], 0.005 nM and 0.02 nM; in [10] it was 0.188 nM; in assay [11] it was 0.018 nM; in [12], 2.36 nM; in assay [13], 0.084 nM. Also, the dissociation constant (Kd) in assay [14] is 0.21 nM; in assay [15] it was 2 nM and 6 nM; in [17], 0.016 nM. The 3H-TdR incorporation of PHA-activated PBMC in assay [16] was determined as 38800 cpm.

Broadly, the Kd is the constant that tells how readily two partners part at equilibrium.
